Laboratory results reported in US9012217B2, “Benzimidazole compounds differentiate a mammalian stem cell into mesodermal or cardiomyocyte cells” (Burnham Institute for Medical Research, priority 2008, dated 2015).

B1: Activin A (protein, UniProt P08476 311-426, looked up)
Inhibin beta A chain: GLECDGKVNICCKKQFFVSFKDIGWNDWIIAPSGYHANYCEGECPSHIAGTSGSSLSFHSTVINHYRMRGHSPFANLKSCCVPTKLRPMSMLYYDDGQNIIKKDIQNMIVEECGCS
notes: "an inducer of anterior mesoderm and endoderm"
B2: BMP4 (protein, UniProt P12644 293-408, looked up)
Bone morphogenetic protein 4: SPKHHSQRARKKNKNCRRHSLYVDFSDVGWNDWIVAPPGYQAFYCHGDCPFPLADHLNSTNHAIVQTLVNSVNSSIPKACCVPTELSAISMLYLDEYDKVVLKNYQEMVVEGCGCR
notes: "posteriorizing growth factors such as BMP4"

Experiments:
[1] = system: CGR8 mESCs stably transfected with eGFP under control of the alpha myosin heavy chain (aMHC) promoter; assay: cardiomyocyte screening assay (aMHC-eGFP mESC differentiation, imaging); type: cell-based, mouse; conditions: structure IIA; activity relative to compound 28 = 100%
Protocol: The primary screen is conducted with CGR8 mESCs stably transfected with eGFP under control of the alpha myosin heavy chain (aMHC) promoter (Takahashi, et al., Circulation, 107(14):1912, 2003). The bioassay is run essentially as described (Bushway et al., Methods Enzymol, 414:300, 2006). Briefly, cells were seeded onto Greiner 384 well microclear bottom microtiter plates in ½ well volume at a density of ˜229 cells/mm2. […]
The optimal time to stop the differentiation is empirically determined to be at day 9 of differentiation, when cardiomyocytes appear in positive control cultures that have higher density cells or culture the cells in embryoid body (not monolayer) culture. […] Image quantification is done using a simple image subtraction routine that subtracted the red channel images from the green (eGFP) channel images to remove background signal from the eGFP images. […]
Follow-up confirmations and testing of hits for SAR were performed on the Hamilton STAR fluid handler with integrated Kendro Cytomat plate hotel and Kendro Cytomat plate incubators using the Hamilton STAR liquid handler robot. […] Image quantification is performed on captured TIFF images using the Developer Toolbox (GE/Amersham) with custom algorithms. […]

mESC = assay: serum-free mESC cardiac differentiation assay (day 2 to day 4 exposure); type: cell-based, mouse; conditions: added alone, day 2 to day 4, serum free
Protocol: To define the point of action in more detail, a more focused assay is designed to probe the activities of the compounds between days 2-4 of differentiation. Of note is that the original assay is performed in the presence of serum, which activates many pathways that obscure the targets of the small molecules. Since serum activates many pathways and many genes, its presence confounds analysis of downstream targets. Thus, a serum-free mESC cardiac differentiation assay is set up to more precisely validate the activity of the compounds and determine if they acted independently or synergized with a known inducer. The refined assay, diagrammed in FIG. 4, tested the ability of the small molecules to stimulate mesodermal differentiation from day 2 to day 4. Differentiation is initiated by aggregating mESC into embryoid bodies (EBs) in serum free conditions. Day 2 EBs were dispersed in the presence of growth factors or small molecules to allow maximal exposure. Cells were allowed to re-aggregate into EBs until day 4 when they were dispersed and plated in conducive conditions for cardiac differentiation to day 9, at which point eGFP is imaged and quantified by the algorithm described above.
FIG. 5 summarizes experiments showing synergy with Activin/Nodal signaling.

| Molecule | Activity [1] | cardiogenesis (cardiomyocytes at day 9) (mESC) |
| --- | --- | --- |
| COc1nnc(Nc2ccc3c(c2)ncn3C2CC2)c2ccccc12 [Compound 104] | INACTIVE |  |
| B1 |  | efficient cardiogenesis |
| B2 |  | does not |
